# Reference: patent US11833164B2, “Methods of treating Fabry disease in patients having a mutation in the GLA gene” (Amicus Therapeutics, Inc., priority 2019, dated 2023)
# Test system: mutant form of α-Gal A expressed in HEK-293 cells
# Test: HEK assay (GLP HEK / Migalastat Amenability Assay): α-Gal A activity in lysates of transiently transfected HEK-293 cells incubated with or without 10 μM migalastat
# Assay type: cell-based, human
# Details: for Absolute increase (% WT) / Relative increase: 10 μM migalastat versus baseline; for Baseline α-Gal A activity (% WT): absence of migalastat; for Baseline α-Gal A activity (% WT) / 10 μM migalastat α-Gal A activity (% WT): percentage of baseline wild-type α-Gal A activity; for Baseline α-Gal A activity (% WT) / Baseline α-Gal A activity / 10 μM migalastat α-Gal A activity / 10 μM migalastat α-Gal A activity (% WT): mean ± SEM; for Baseline α-Gal A activity / 10 μM migalastat α-Gal A activity: lysates of HEK-293 cells transiently transfected with the mutant form; for Baseline α-Gal A activity: incubated 5 days in absence of migalastat; for 10 μM migalastat α-Gal A activity: incubated 5 days with 10 μM migalastat; for 10 μM migalastat α-Gal A activity (% WT): with 10 μM migalastat, 5 days
# Method in brief: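 Activity reported as 4-MU released (nmol/mg/hr), mean±SEM, from lysates of transiently transfected HEK-293 cells expressing mutant α-Gal A, cultured with or without 10 μM migalastat.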
Molecule,Absolute increase (% WT),Relative increase,Baseline α-Gal A activity (% WT),Baseline α-Gal A activity [nmol/mg/h],10 μM migalastat α-Gal A activity [nmol/mg/h],10 μM migalastat α-Gal A activity (% WT)
V369I (protein) MQLRNPELHLGCALALRFLALVSWDIPGARALDNGLARTPTMGWLHWERFMCNLDCQEEPDSCISEKLFMEMAELMVSEGWKDAGYEYLCIDDCWMAPQRDSEGRLQADPQRFPHGIRQLANYVHSKGLKLGIYADVGNKTCAGFPGSFGYYDIDAQTFADWGVDLLKFDGCYCDSLENLADGYKHMSLALNRTGRSIVYSCEWPLYMWPFQKPNYTEIRQYCNHWRNFADIDDSWKSIKSILDWTSFNQERIVDVAGPGGWNDPDMLVIGNFGLSWNQQVTQMALWAIMAAPLFMSNDLRHISPQAKALLQDKDVIAINQDPLGKQGYQLRQGDNFEVWERPLSGLAWAVAMINRQEIGGPRSYTIAIASLGKGVACNPACFITQLLPVKRKLGFYEWTSRLRSHINPTGTVLLQLENTMQMSLKDLL,19.6,1.2,79.7 ± 6.8,30094 ± 3211,36630 ± 2373,99.3 ± 5.5
V369L (protein) MQLRNPELHLGCALALRFLALVSWDIPGARALDNGLARTPTMGWLHWERFMCNLDCQEEPDSCISEKLFMEMAELMVSEGWKDAGYEYLCIDDCWMAPQRDSEGRLQADPQRFPHGIRQLANYVHSKGLKLGIYADVGNKTCAGFPGSFGYYDIDAQTFADWGVDLLKFDGCYCDSLENLADGYKHMSLALNRTGRSIVYSCEWPLYMWPFQKPNYTEIRQYCNHWRNFADIDDSWKSIKSILDWTSFNQERIVDVAGPGGWNDPDMLVIGNFGLSWNQQVTQMALWAIMAAPLFMSNDLRHISPQAKALLQDKDVIAINQDPLGKQGYQLRQGDNFEVWERPLSGLAWAVAMINRQEIGGPRSYTIALASLGKGVACNPACFITQLLPVKRKLGFYEWTSRLRSHINPTGTVLLQLENTMQMSLKDLL,30.3,1.4,74.2 ± 3.7,27680 ± 1912,38458 ± 2367,104.5 ± 5.6
A370G (protein) MQLRNPELHLGCALALRFLALVSWDIPGARALDNGLARTPTMGWLHWERFMCNLDCQEEPDSCISEKLFMEMAELMVSEGWKDAGYEYLCIDDCWMAPQRDSEGRLQADPQRFPHGIRQLANYVHSKGLKLGIYADVGNKTCAGFPGSFGYYDIDAQTFADWGVDLLKFDGCYCDSLENLADGYKHMSLALNRTGRSIVYSCEWPLYMWPFQKPNYTEIRQYCNHWRNFADIDDSWKSIKSILDWTSFNQERIVDVAGPGGWNDPDMLVIGNFGLSWNQQVTQMALWAIMAAPLFMSNDLRHISPQAKALLQDKDVIAINQDPLGKQGYQLRQGDNFEVWERPLSGLAWAVAMINRQEIGGPRSYTIAVGSLGKGVACNPACFITQLLPVKRKLGFYEWTSRLRSHINPTGTVLLQLENTMQMSLKDLL,22.9,1.3,78.1 ± 4.4,24835 ± 2637,31805 ± 3001,101 ± 5.4
A370D (protein) MQLRNPELHLGCALALRFLALVSWDIPGARALDNGLARTPTMGWLHWERFMCNLDCQEEPDSCISEKLFMEMAELMVSEGWKDAGYEYLCIDDCWMAPQRDSEGRLQADPQRFPHGIRQLANYVHSKGLKLGIYADVGNKTCAGFPGSFGYYDIDAQTFADWGVDLLKFDGCYCDSLENLADGYKHMSLALNRTGRSIVYSCEWPLYMWPFQKPNYTEIRQYCNHWRNFADIDDSWKSIKSILDWTSFNQERIVDVAGPGGWNDPDMLVIGNFGLSWNQQVTQMALWAIMAAPLFMSNDLRHISPQAKALLQDKDVIAINQDPLGKQGYQLRQGDNFEVWERPLSGLAWAVAMINRQEIGGPRSYTIAVDSLGKGVACNPACFITQLLPVKRKLGFYEWTSRLRSHINPTGTVLLQLENTMQMSLKDLL,22.4,1.2,87.5 ± 6.1,27098 ± 2504,33279 ± 2473,109.8 ± 6.8
